# According to the supplement of paper PMC10567573:
# ± gives the standard deviation.
# Experiment: protein stability index of a GFP-peptide fusion (GPS, HEK-293T) (PSI 1-6); higher = more stable
# [1] = treatment: DMSO, c terminus: a fixed tail appended
# [2] = treatment: MLN4924 1 uM, 8 h, c terminus: a fixed tail appended
# 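Note: 24-mer peptide tiles fused after GFP, lentivirally expressed, FACS-sorted into six equal bins by GFP/DsRed ratio, decoded by Illumina sequencing, PSI is the read-weighted mean bin number.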
Sequence,protein stability index [1],protein stability index [2],"protein stability index (treatment: DMSO, c terminus: native)","protein stability index (treatment: MLN4924 1 uM, 8 h, c terminus: native)"
SSSSSSSSCYPLIPSTPEEVSADD [MAGEA10],5.46 ± 0.33,5.5 ± 0.14,,
NVVTCAAGILSNLTCNNYKNKMMV [CTNNB1],2.69 ± 0.41,2.46 ± 0.24,,
ENPETDLHVNPKKQTIGNSCKACG [EIF5],4.44 ± 0.39,4.66 ± 1.2,,
GKELAGTMDGEGTLFQTESPQSGS [PBXIP1],5.42 ± 0.43,5.38 ± 0.17,,
VGIYATNSAEACQYVITHAKVNIL [ACSBG2],2.73 ± 0.69,2.38 ± 0.83,,
RIKGVEVFCPLDPPPPYEAVVSQM [FAM189A2],2.83 ± 0.33,2.88 ± 0.22,,
NMDPKAAEEEEEEEEEVDLACTPT [CCND1],5.6 ± 0.27,5.64 ± 0.13,,
LLETNPYLLALTIIVSIVHSVFEF [CLPTM1],3.08 ± 0.33,2.69 ± 0.13,,
DAPVPDCLGVHCDFHQGLLSFYNA [FSD1],2.41 ± 0.094,2.52 ± 0.26,,
GTYSQALNDAKRELRFLLVYLHGD [FAF2],2.41 ± 0.47,2.16 ± 0.32,,
ACCEFLESQLDPSNCLGIRDFAET [KLHL12],2.79 ± 0.37,3 ± 0.5,,
MTMIVSLAAVAWVGQQVHNLLLTY [ARL6IP1],3.31 ± 0.37,3.25 ± 0.32,,
LPERRGTCADRDNLTRRFSDLGFE [CASP6],3.16 ± 0.21,3.09 ± 0.086,,
IPVLMALSWFILHARYRVIHFIAV [SLC35F2],3.09 ± 0.43,3.25 ± 0.093,,
PKARKQGVSPADMYRWKLSSHEPC [ADAMTSL2],2.94 ± 0.27,3.25 ± 0.14,,
LHQETQLIHVYLPLTSHILRAFVN [SNX8],3.06 ± 0.67,2.86 ± 0.48,,
NNQDFIPFTKKRVGVDRAFPLKPM [ZC2HC1C],2.85 ± 0.39,3.26 ± 0.45,,
SNDNEERLQVVKLLAKMFGAKDSE [PDS5B],3.17 ± 0.3,3.12 ± 0.4,,
EPEPAEVTSTSQSPHSPDSSQSSL [DDIT3],5.48 ± 0.15,5.58 ± 0.13,,
ISFDRYYKIVKPLWTSFIQSVSYS [P2RY14],3.63 ± 0.89,2.08 ± 0.7,,
LPLPLSLAPPPLPLPAAAVVHVSF [ZBTB22],2.34 ± 0.3,2.15 ± 0.17,,
QSSFNSLQRVPSYDSFDSEDYPAA [ETS1],4.92 ± 0.28,4.93 ± 0.21,,
PCIPPGFRNLVADRVLNYTSWSQH [SPAG8],2.14 ± 0.15,2.37 ± 0.27,,

Sequence,protein stability index [1],protein stability index [2],"protein stability index (treatment: DMSO, c terminus: native)","protein stability index (treatment: MLN4924 1 uM, 8 h, c terminus: native)"
ALPSVMRFCCCVAVIYLGYCFCGW [MCOLN1],2.76 ± 0.59,2.83 ± 0.31,,
VCESMKEQLLVLVEWAKYIPAFCE [HNF4A],2.51 ± 0.38,2.34 ± 0.38,,
HILAKNYFSQVPVLASFILDDGEI [IQUB],2.2 ± 0.51,1.96 ± 0.42,,
SPKELKRRNSSSSMSSRLSIYDNV [DLC1],3.92 ± 0.32,3.94 ± 0.39,,
YNPHPGFPELGYSYGGGSASSQHS [DVL3],2.95 ± 0.36,3.29 ± 0.26,,
TISEFILSEDYNKMTPVKNYQAHQ [WDFY2],2.66 ± 0.16,2.78 ± 0.14,,
SLQPQQQQQRQRPPRPPPRGTPPR [N4BP2L1],3.81 ± 0.17,4.16 ± 0.2,,
SVRGYMMSKQRERQLRRRALHPER [RETREG3],3.43 ± 0.047,3.73 ± 0.31,,
HLNAIRGLPGSFIKEVQKGGPADL [PDZK1],3.56 ± 0.34,3.99 ± 0.19,,
LKRSHRESQFLMAKKNFNTNLLE [HESX1],,,3.36 ± 0.24,3.62 ± 0.2
DPDFKDLGALKPLPACEFEMGGSE [NETO1],5.24 ± 0.22,5.27 ± 0.2,,
MKTFVSPEAISPDLVKKIRDFHRK [TRIM15],3.17 ± 0.13,3.07 ± 0.16,,
HGPISEVLLIKDRTSKSRGFAFIT [RBMY1A1],2.83 ± 0.36,2.66 ± 0.91,,
AKEDGKADTKKRHTPRGHAESTSN [SMOC2],5.53 ± 0.25,5.45 ± 0.35,,
LSVGQYNCPGQYTFSMPSDSHVSS [CD69],3.05 ± 0.28,3.07 ± 0.27,,
PVKSYDYLLKFLLVGDSDVGKGEI [RAB40C],2.06 ± 0.19,2 ± 0.24,,
IVMCVQIKCFHEIITIGYNVYHSY [CDS2],3.32 ± 0.42,3.36 ± 0.66,,
SSHEPCSATCTTGVMSAYAMCVRY [ADAMTSL2],2.24 ± 0.3,2.32 ± 0.19,,
REIALAKKHGTQNKRAALQALKRK [CHMP4C],4.04 ± 0.14,4.29 ± 0.39,,
AESSVPPVTSIGIDNLGLKLEENL [SLC35F2],4.97 ± 0.2,5.13 ± 0.13,,
DEQAPQRQRLLADLLHNVSQNIAA [DFFB],3.72 ± 0.16,3.58 ± 0.31,,
LSQAGQKTSAALSTVGSAISRKLG [TPD52L2],3.67 ± 0.22,3.92 ± 0.27,,
LGSVQFMEQFCWPHLRSFCETCVG,2.39 ± 0.29,2.21 ± 0.41,,

Sequence,protein stability index [1],protein stability index [2],"protein stability index (treatment: DMSO, c terminus: native)","protein stability index (treatment: MLN4924 1 uM, 8 h, c terminus: native)"
SPDKDSIMNIEPAILVMHHSMKPH [INTS3],3.32 ± 0.3,3.5 ± 0.2,,
KSKGYGFVSFFNKWDAENAIQQMG [TIA1],2.11 ± 0.76,1.59 ± 0.3,,
EVPTAAGALTPTPAPTTTTATREE [CLPTM1],5.42 ± 0.27,5.44 ± 0.39,,
PSEPSAPLPAGVPPLEDFEVLDGV [FKBP8],5.49 ± 0.18,5.53 ± 0.11,,
DDVEMKNGITQGDKLRALKSQRQP [CDC14A],4.91 ± 0.25,5.05 ± 0.25,,
CLMGLAETPGCATLLPASLFVNSH [DCAF4],2.35 ± 0.3,2.35 ± 0.34,,
ELVPKQPQKRKPQEQLLECNKLCG [SLC2A12],3.44 ± 0.45,4.18 ± 0.18,,
RQRFRHLRYQETPGPREALSQLRV [ZNF232],3.13 ± 0.27,3.39 ± 0.28,,
SRAALVCRKWNQMMYSAELWRYRT [FBXO39],2.45 ± 0.56,2.15 ± 0.25,,
IVVSLQSKLASMSNDFKSVLEVRT [STX5],2.7 ± 0.65,2.64 ± 0.72,,
ISVNGDVITIKSESTFKNTEISFI [FABP4],2.75 ± 1.1,2.11 ± 0.16,,
ATVVMMTKLEERSRVKCDQYWPSR [PTPRD],2.42 ± 0.32,2.17 ± 0.38,,
QAPISAPEYTYGISNIDTTIEGTS [MFF],4.67 ± 0.42,4.55 ± 0.21,,
MHDAFEPVPILEKLPLQIDCLAAW [VPS39],2.56 ± 0.34,2.56 ± 0.27,,
VPVKKQKTRTVFSSTQLCVLNDRF [NANOGP8],2.57 ± 0.23,2.77 ± 0.32,,
VKDEAHQAQKDPKKDRPLARRKSE [PPP2R5C],5.55 ± 0.25,5.43 ± 0.22,,
DPACYEFLWGPRALIETSYVKVLH [MAGEA6],2.26 ± 0.78,2.21 ± 0.22,,
SNVRWDHESVCKYYLCGFCPAELF [LUC7L3],2.25 ± 0.37,2.29 ± 0.34,,
STSSSFPSSFPSSSSSSSSSCYPL [MAGEA10],3.73 ± 0.11,3.82 ± 0.32,,
RSKIYLRFLDYEMQNSNECKRNFV [NETO1],2.1 ± 0.2,2.28 ± 0.091,,
YMYLVIEELTREAVAVDVAVPKRL [HAGHL],2.57 ± 0.57,2.71 ± 0.41,,
KPPPRKHTRSWAVLKLLLLLLLFG [LRRC59],2.09 ± 0.3,2.02 ± 0.26,,
EANSSNSQKNEKALTNIQNCMAEK [C8orf76],4.96 ± 0.38,4.58 ± 0.37,,

Sequence,protein stability index [1],protein stability index [2],"protein stability index (treatment: DMSO, c terminus: native)","protein stability index (treatment: MLN4924 1 uM, 8 h, c terminus: native)"
FPREHQFFEDGDVQRHLYLQDVIM [ZNF511],2.45 ± 0.085,2.78 ± 0.28,,
ELGSESQGASESQAPGEENLLGEA [HDAC6],5.63 ± 0.29,5.54 ± 0.12,,
LLPEDMALRNLPPLRAAHRRFNFD [SMG5],3.06 ± 0.38,3.2 ± 0.33,,
QSRGVPAVSESYSAPGACEEPTER [FBXO34],5.49 ± 0.18,5.49 ± 0.18,,
KDYYPINESLASLPLRVSFCPLSL [CLPTM1],2.16 ± 0.28,2.15 ± 0.096,,
NLAGFILGCQGAQFVSSVPRCDLV [FAM189A2],2.66 ± 0.59,2.58 ± 0.57,,
SFGPQPISRLEQCGINANDVKKLE [RAD51],4.27 ± 0.18,4.37 ± 0.14,,
MDEAVGDLKQALPCVAESPTVHVE [TRIP13],5.18 ± 0.13,5.01 ± 0.19,,
LGYAASLEASVQDDAGTSGGPSSP [C2CD2L],5.45 ± 0.34,5.53 ± 0.22,,
ATPRQVPSLQHLCRMSIRRVMPTQ [WSB1],3.83 ± 0.23,3.77 ± 0.15,,
LLFINHRLVESTSLRKAIETVYAA [MLH1],2.2 ± 0.24,,,
SSESSSDSDNSGGGGGGGGGGGGG [ANKRD17],5.59 ± 0.27,5.7 ± 0.12,,
CWSRDGHKLVSASTDNIVSQWDVL [RBBP5],2.81 ± 0.12,2.87 ± 0.18,,
PNIPKAKSLDGVTNDRTASQGQWG [DHCR7],4.65 ± 0.29,4.84 ± 0.29,,
DDVRLLCHLTPSIYTEFPDETLRS [INTS3],3.41 ± 0.2,3.49 ± 0.54,,
ALLTGGGSENRNHRLLNMARNNND [RNF180],3.7 ± 0.41,3.76 ± 0.35,,
ASTVLKSVGFQSNEAASLASTGVG [SLC2A12],4.16 ± 0.3,4.15 ± 0.35,,
AVLGFPGFSSGRHRWQVDLQLGDG [TRIM15],2.18 ± 0.069,2.22 ± 0.17,,
LARLEERSSEFYRVTTEQYQKAAE [CHCHD3],4.29 ± 0.27,4.29 ± 0.21,,
FQTLQAIVSHFQKLFDVPSLNGVY [CEP70],2.36 ± 0.36,2.36 ± 0.4,,
